# Reference: patent US20240245805A1 (Orna Therapeutics, Inc., priority 2020, published 2024)
# System: HEK293 cells
# Assay type: cell-based, human
# Conditions: circular RNA encoding Gluc with the listed IRES (UTR truncated to 675 nt) transfected into HEK293 cells; supernatant after 24 hours
row,Molecule,Expression (luminescence from secreted Gluc protein)
1,"Kashmir bee virus: ""an IRES is an IRES sequence of ... Kashmir bee virus"" (nucleic acid, Kashmir bee virus) DNA: TACGTACAATTTTGACGCTTCGTTCATGCAACAATGAACTCACATGTGGCGCTCGGTAGTAACCAGAGGGGCGTCATTCCCCCGTATGGAGTGGAGAATATAAGCTACCGACTCGAGCTGTAGAATAATTCAGCAACTTATAACGAACACGAATTTTAGTCGACGAAACCATTTTAGCCTTTAATTCTATGATTTGATTATAATGATAAACAGCTCATGTAACTGTCTAAACTACATAAATACAACTGGATTACGAACCTTTAAGTAACTATCTTAGATGAAGTCTAGTAGTCTCCCAATATTTCCGTGAAAAGAATGAGGGACGAGATAGCTCTATTTAAAGACGTGAGGCTTTAAATTCTGATAAATACATTACCTGAGAATTCCTCCTTTAGGAGTTAGAATTTGAAAAGATTAGTACCTATACTTAATAGAATTTAAATATGTTAATAATGCTGAAGACAAGTATTTCGATTATTAACCTCTATATTTCTATATAAAGTATCTGTGAGTCTCAGTGGACATCACAGTAAGGTCGCAGTTAACTTGTAATCTTTTCATTCCTGTGTCGGAGCAGTGGTAATGGAGCCGGACGATTTCGCCAAAAC",1.65E+05
2,"Hubei picorna-like virus 2 (nucleic acid, source: /note=""Description of Unknown: Hubei picorna-like virus 2 sequence"") DNA: AGCAACTTCTTTCTGAAAACTAGCTAGAGTTCGACGATCTCTCTGGCTAATGACAAATAACCAATCAAAAAGTCAAATGTTCATGTATATATATATTTAGTAGTGACCTTTATTTAGAAAAACTTTAGATGATTTATCGTCAAGTTGCCCTTTGTGAAGCGATCAGCTTTTTATATCGTTTCATTTTTGTATACGTCTTAATTGACGTTGTAAGTACGTTTTGCATACCTCACATTGAGGATAGTATCGTTTCCTGACTAAGAAGTTAAACTAGTCTACCAATAGCAACCATATAGGATATAGCTTTGTTTTTAACAAGGTTTAATCTGATCTTATGCTCTTGCTTACGGTGTTTTATGTATAGAAAAGTTTTTATAAAAACTACATAATTGTCAAAAGAAAAAGCGTTACGTACTGACGCATTTATGTTCACAGTGTGACACAAACCTTCTATATTTTGATTGTAAAATAGGCTTTGCCTGACCATTTATCAAATACAAACTGTTTCAAACGCCTCTCCGAGCCATATTGGCCGACGCGAATCGACATAACAGGGTGAGTTTACAGCTGCAGTTGCAGCCGAGGATCCACTTATTTGAGAGAGAATTACTCTTAACGAAATTTTGAAGTCACTTCTACACAGTTAAGTCTGAGTAGGCGTTATCCAAACGTAAA",1.95E+05
3,"Miniopterus schreibersii picornavirus 1 (nucleic acid, lipid formulation; source: /note=""Description of Unknown: Miniopterus schreibersii picornavirus 1 sequence"") DNA: GTTGTCGACCCGTTGCTTGGTTTAAGCATGAGGTGGATTCCCCCGATTATGTCTACCCGTTACTATGGCGGGCGGTCGTTTCAGGGTGTTTCTACTGAGGACTGCACCAAGTCTTTATCTTTTATTCTCAGATCTCCGGCTGTTTGACGCTTGTAGGACAGCAGGACTATTTTCTCTTAATCTTTTTCTACCCACTAGGGTCCTATCCTAGTGGAGGGAGGGTGCCACCCCTTCTCTCTTTAGAGAGTGCGCCTGGCGGTCTTTCCGTCTCTGGAAAAAGGAGCACATGGCATGCTACAATTGGCACAAGAAAACAAGCTTTGCGGATTCTTTCTTTGTACTAGAGGAAGCTGTAGCGACCCTGTATGGCGAGCGGACTCCCCTCTCGGCGACGAGAGCCTCTCGGGCCAAAAGCCAAGTGTTAATAGCACCCATACAGGCGGCAGTACCCCACTGCCCTTTCTCAACATACAATGACTGATGAACCACTGTTGGTTTTTCTGACACCTTTGTAGTAGGATTCCAAGGAATGTCCTGAAGGTACCCTGTTAGCTTACGCGCAGGATCTGATCAGGAGTCTCTTTACAGTGCTGTACACTGTGCAAGGGATTAAAAATTGTTTGAGGAATCCCCGAGATAGTGGTCTATCTCTTCCTATTTTGTTTTACAGACACG",6.05E+06
4,"Harrier picornavirus 1 (nucleic acid, source: /note=""Description of Unknown: Harrier picornavirus 1 sequence"") DNA: GATGTGTGACGGTGTAATTACTTTCCGGATCCCACTTTCCTATTATAACTCTTTCATCCCAAGGTTAGGGAAAGAACCTGGCTCGGTACCACCAGACCCTCCGCCACGCTAGTGGACTCTCCGGAGATAACGGTACCCCCTTTGTAGTCACCTGTGCTGGTGAAGAACCACCTAGTATTGCTTGGGTGCGTGCCGCCTAGCTTCCATTTCTTCTGGAGCACTGTGCAATGAGGTTTCCCCACTTGGTAACAAGTGCCTCAGGTCCCGCAAGGATACTGTGGGGTGGTGTGACCGCAGGGAGCTGTCTCCACGGCTCCTCTAATGTTACGCCGCTATCCACAGGCCAGTGCGTGTCATCGATCCCGGATGACAGAGCTAGTATTGCGAACCCCCAAGTAAGAAAAGTGGCTAGTAACCTGATAGCTGGTGAAGAGGGTGGGTCAGTTGAGTAGATGCCCTAGAGGTACCCGAAAGGATCTGACTAGGGACCCGTGACTATACATTAGGTAAACCGGGTATAAAAACCATGAAAAACTGACCACTTTTCTTTTAACCTCTTCTTTCTTTTTATGTGTGTTAAGTGTTTTGAGTTTGGACTGTACCTTGCCCGCCTTTCTTGGATTTTCTCTATCGCTCTTCTTACACCTACTGTTATCAAGGCACTCTTTAGAGATA",1.47E+05
5,"Jingmen picorna-like virus (nucleic acid, source: /note=""Description of Unknown: Jingmen picorna-like virus sequence"") DNA: TGTGTTTTTGTCAAGATAATTGTTCTGTGATTAACAGTGATTGTGGTTCGTGTAATGCGACGCAGTCAAATGCTAGTTTTGATGAAGTGTATGAGAGAGTGGAAAACTTATCTCATAAGAAGATTGAAGAGTGTGTAGATCAGGCTATTGATCGAGCTTCTAAGCTTCGTGATTACAAGCTTAATGTTCACAATGGCTCCCGACGGGAATCATCTGATCCTCTCTTTATTTCGCCCCATTCGTTGTTATCGCTTGGGGTATCTAAGTTTGTTGCGTTTGAGCAGCATCACAGTTTCGCTTCAGTTGAGTCTCTGAAGTTGCTTGCTCTGTCT",9.32E+04
6,"Hepacivirus P (nucleic acid, listed as Hepacivirus sp.) DNA: ACATGGGGGGGGGCTGACAGTGAGTACACTGTGCCAAGCAGGTGCTACGCTATGCCTAGGTGCTGCTGTAGGCCAAGGACATGTCCCAGTCATCCCAGGTGAGGGGGGGGGTTCCCCTCACCGCTGCCACTGCCTGATAGGGTCCTGCCGGAGGGTCTCGGTGTCCGGCTGTAC",6.04E+05
7,"Picornavirales Tottori-HG1 (nucleic acid, lipid formulation; source: /note=""Description of Unknown: Picornavirales Tottori-HG1 sequence"") DNA: AGCCATGAACTAGTGTGCGATTCCCACAGTGTTGGTCGAAAGCCCCGCACTGTCTACTCGCATATTTGACTCCAGTCCTTCCGCAGCCAGCGGTTAGGTTCTGGTTAAAGTGCATTATGTGCACGGCGCCACGCAGAACTGCCAGAAATGGTAAGCTGCGCCCAACGCCAACGGTTTGTGTATCCCGTTAGTCACACGTTTACAGCTGTTCGTTAACAGTAGGGTTTTGTCGACCCGGACCCCTTAATGCGCGCGAATTCAACCGCGCCTAGTCGGCAATGGTATCATTTAATCCCATGCACTACGGGAGAAATTTGAGACCAAAGAATTCCTGAGGGCCACTGCTTGCTCTAAGTGCAATGCCTCGGGAGACTTCTGTCAGGAGCCTAGCGGCTTTCAACCGCGACAGCTAACTCCTGCGGGATGTTTGGTGTCCATACTTACTGGCGTCCTCACAACGCTAAGTGGATGTTGTCCACAGGTAGGCAAACACCGAGCCCCACATTCAGGAGACCTGTATGAACGATCCTATCAGCATTAGAGTTGGAATTGGGTGTGCTAACGTCCGCATAAGTGCACCCCGTGGTAACGCTGGGAAACTATCCAGCGCAACGTACTGTCCTCAATGTCTAGGGAAGGACCGCCCTAAGCGTACAACCGGGCCATGTGTCGAGC",9.54E+04
8,"Porcine reproductive and respiratory syndrome virus 2 (nucleic acid, lipid formulation; source: /note=""Description of Unknown: Porcine reproductive and respiratory syndrome virus 2 sequence"") DNA: ATGACGTATAGGTGTTGGCTCTATGCCTTGGCATTTGTATTGTCAGGAGCTGTGACCATTGGCACAGCCCAAAACTTGCTGCACAGAAACACCCTTCTGTGATAGCCTCCTTCAGGGGAGCTTAGGGTTTGTCCCTAGCACCTTGCTTCCGGAGTTGCACTGCTTTACGGTCTCTCCACCCCTTTAACC",1.29E+05
9,"Lesavirus 1 (nucleic acid, lipid formulation; source: /note=""Description of Unknown: Lesavirus 1 sequence"") DNA: GTAACTAATAAGCAAGTTTTACTGCCTGCAAACTGCTTCAATGGGACCACCGCTTCGGCGACCCCTTTGTTGAGTTTGTATGTTTTTAAGTAATCTTTGCAACCATACGATTATTTTAGCCGCCTCTCTATAATGATCTTGTTATAGTGGGACGTGAAACATTGGTTTTTCTCACACACGTCCGGTCACCCGGGCGTGTGTTCTTCCGTAAGTCCTATCCACATACCATCGTGGGTAGGCCAGCATGTTTGCACAGGCTGTGACAGTGTGGGTGGGCTTTCCACCTCTCAACAACACACTGAATTGCAATGCACTCACGGAGGAAATGACAATTTGGTTATAGTTTTGAACTGTGCTAGTAATTTCTTTCACATTAAGCCATGTTGCCTGCGGAATCACATGTGGTAACACATGCCTCAGGGCCCAAAAGGCACGGGTTAGCAGCCCCTTCATGGTGTGTTAGAAGTGAAAACACATAGTATGAGCTATAATATCTTTGTTGTCTTCTCTGTAGTGTACCCCGCCAAATGTAAGGATGCCCAGCAGGTACCCATTTTATGGATCTGAGCTGGGGATTGATAGTGTATCTATAAATGCACTGATCAATTTAAAAAGCGTCTAAGTTTGGCACAAACACTGGGGACAGTGTTTTTCCTTTATTCTTTTATTTGATTA",6.37E+06
